Measured values taken from paper PMC6859792.

Tested on: O=P(O)(O)O[C@H]1O[C@H]([C@H](O)CO)[C@@H](O)[C@H](O)[C@@H]1O
Experiment: purified protein
Conditions: pH 7.4, 25 °C, GTP 1.0 mM, MgCl2 2.0 mM, pyrophosphatase 1 U

Substance: Cj1423 (Campylobacter jejuni subsp. jejuni NCTC 11168 = ATCC 700819)
- Km: 495 ± 65 µM
- kcat: 1.35 ± 0.04 s⁻¹
- kcat/Km: 2700 ± 400 M⁻¹ s⁻¹
